Laboratory results published in patent US11254722B2, “Recombinant proteins and uses thereof” (ACADEMIA SINICA, priority 2017, dated 2022).

What was measured:
[1] = system: MCF-7 breast cancer cells; test: MCF-7 proliferation assay; format: cell-based; details: FIG. 5
Procedure: (§1) MCF-7 cells (a breast cancer cell line) were maintained in MEM (GIBCO) plus insulin and NEAA and 10% FBS (Hyclone).
(§2) For the proliferation assay, cells except for HUVEC were seeded at a density of 1,000 to 6,000 in 96 wells in an assay buffer of DMEM/F12 plus 0.2% BSA and 10 ug/ml transferrin. Chemical inhibitors were added after 16-20 hours after plating; IGF-1 or other growth factors or test chimeras in assay buffer were added at the time of plating or 16-20 hours after plating. 5,000 HUVEC ells were plated in poly-L-lysine coated 96 wells in M199 with 1%/FBS and HEPES. After 3 to 4 days of culture, growth was determined by incubating cells with Alamar blue for 4 to 6 hours and then the fluorescence (RFU) at 544/590 nm was read. For long term proliferation assays, cells were plated in the growth media with 5% or 10% FBS at densities of 500 to 10,000 cells per cm^2 growth area and grown for 7 to 21 days. Inhibitors and effectors were added 1-4 days after plating. Cells were exposed to cisplatin or gemcitabine for two days. Medium was renewed twice weekly. At completion, cells were fixed and then stained with Giemsa.
We next examined the effect of 56662 (BP3/Fc) on the proliferation induced by growth factors that interacted with the IGFBP3. The proliferation of MCF-7 breast cancer cells was induced in serum-free medium by individual growth factors like IGF-1, IGF-2, EGF, TGF-a, Nrgbx, b-FGF, and amphiregulin (FIG. 1).

hep3B cells = test: hep3B proliferation assay; format: cell-based, human; details: FIG. 22A
Procedure: as §2
The human hepatoma cell line hep3B could be stimulated by many growth factors including IGF-1, IGF-2, HGF, bFGF, VEGF, and neuregulin.

HUVEC cells = test: HUVEC proliferation assay; format: cell-based; details: for inhibition of VEGF-induced proliferation of HUVEC cells: FIG. 6, FIG. 13
Procedure: as §1, §2
Growth factor synergism can also be observed in the proliferation of HUVEC cells.

IGF-1 and VEGF = test: Competition binding ELISA with biotinylated IGF-1 or biotinylated VEGF; details: competitive inhibition data, FIG. 8 and FIG. 9
Procedure: (§3) Plates were coated with goat anti-human Fc antibody, blocked and then incubated with chimera as in the Fc ELISA. Biotinylated IGF-1 (GroPep) or VEGF-Biotin (R&D Systems VEGF biotinylated with sulfo-NHS-LC-biotin as per instructions (Pierce) was added for 2 hours followed by streptavidin-HRP (Jackson Immunoresearch) for 30 minutes. Chromogenic development with tetramethyl benzidine was performed as described above.
ELISA plates were coated with 0.5 μg/ml growth factor (IGF-1, IGF-2, VEGF, etc.) in PBS overnight and blocked as described above. After overnight incubation with chimera, chimera binding was detected with anti-human Fc-HRP and development with tetramethyl benzidine as described above.
Binding specificity was also studied by competition binding assays using biotinylated IGF-1 (IGF-1-bio) or biotinylated VEGF (VEGF-bio) in the growth factor ELISA assay.

VEGF = target: T1, VEGF (Homo sapiens, UniProt P15692); test: Stability: VEGF binding remaining after overnight incubation; format: physicochemical; details: experiment 3-192
T1 construct: purchased R&D Systems
T1 sequence (P15692 27-191 isoform P15692-4): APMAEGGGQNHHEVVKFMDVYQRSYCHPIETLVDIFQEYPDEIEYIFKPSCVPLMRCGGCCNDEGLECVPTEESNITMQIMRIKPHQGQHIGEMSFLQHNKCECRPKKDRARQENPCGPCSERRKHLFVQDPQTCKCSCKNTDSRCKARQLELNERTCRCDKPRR
Procedure: as §3
To test the stability of the present chimeras, some purified chimeras (see, Table 4) were incubated with PBS or a conditioned medium from the MCF-7 cell line overnight at 37° C. and PBS overnight at 4° C. The IGF-1 binding and VEGF binding were measured using the biotinylated IGF-1 and VEGF.

[2] = target: T2, nrgECD (amino acids Ser2-Lys246 of neuregulin beta 1) (Homo sapiens, UniProt Q02297); test: Biacore binding to nrgECD; details: immobilized nrgECD
T2 construct: Ser2-Lys246 of neuregulin beta 1; purchased R&D Sciences or SinoBiologicals
T2 sequence (Q02297 2-246 isoform Q02297-6): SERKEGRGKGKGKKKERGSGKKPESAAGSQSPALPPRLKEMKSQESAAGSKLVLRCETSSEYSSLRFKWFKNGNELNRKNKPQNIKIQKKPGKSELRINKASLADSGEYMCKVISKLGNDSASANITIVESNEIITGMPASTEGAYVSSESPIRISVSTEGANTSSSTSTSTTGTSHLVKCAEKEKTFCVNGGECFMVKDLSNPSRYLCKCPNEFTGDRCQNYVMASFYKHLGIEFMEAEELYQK
Procedure: (§4) Biacore binding was performed at David Myszka's laboratory at the University of Utah or at the Genomic Research Center at Academia Sinica. Surfaces of binding protein chimera were made via chemical immobilization on a CM4 chip using standard amine coupling chemistry. […] Excess surface carboxyl activated sites on all four flow cells was blocked using the doubly positively charged species ethylenediamine. Binding experiments (but not immobilizations) in HBS-P (10 mM HEPES pH 7.4, 150 mM NaCl, 0.05% P20), The HBS-P was supplemented with BSA at 0.2 mg/mL, or HBS-P was supplemented with 500 mM NaCl (650 mM NaCl, final concentration). Analytes were also reconstituted in the corresponding buffer. All experiments were performed at 25° C. 1/150 dilutions of phosphoric acid were used to regenerate IGFBP3-Fc surfaces and a sequence of 3 M MgCl2 followed by 5 M GuCl was used to regenerate surfaces immobilized with growth factor. Dissociation constants reported below used immobilized binding protein unless noted. Differences between binding constants may be expected between growth factor immobilization and chimera immobilization.
(§5) In this example, erbB4 domain 1 was attached to the N-terminus of the recombinant IGFBP3-Fc or the recombinant IGFBP3-v1v2-Fc.

[3] = target: T3, nrgEGF (amino acids Thr176-Lys246 of neuregulin-beta 1) (Homo sapiens, UniProt Q02297); test: Biacore binding to nrgEGF
T3 construct: Thr176-Lys246 of neuregulin-beta 1; purchased R&D Sciences or SinoBiologicals
T3 sequence (Q02297 176-246 isoform Q02297-6): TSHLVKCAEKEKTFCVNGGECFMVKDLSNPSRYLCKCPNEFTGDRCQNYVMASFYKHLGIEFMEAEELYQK
Procedure: as §4, §5

B1: chimera A: IGFBP3 with IGFBP3 linker deletion 1-gly 3 linker-v1v2-Fc, SEQ ID NO: 14 (protein)
chain: MSEVPVARVWLVLLLLTVQVGVTAGGASSAGLGPVVRCEPCDARALAQCAPPPAVCAELVREPGCGCCLTCALSEGQPCGIYTERCGSGLRCQPSPDEARPLQALLDGRGLCVNASAVSKGHAKDSQRYKVDYESQSTDTQNFSSESKRETEYGPCRREMEDTLNHLKFLNVLSPRGVHIPNCDKKGFYKKKQCRPSKGRKRGFCWCVDKYGQPLPGYTTKGKEDVHCYSMQSKAPPAPGNASESEEDRSAGIYIFISDTGRPFVEMYSEIPEIIHMTEGRELVIPCRVTSPNITVTLKKFPLDTLIPDGKRIIWDSRKGFIISNATYKEIGLLTCEATVNGHLYKTNYLTHRQGYRIYDVVLSPSHGIELSVGEKLVLNCTARTELNVGIDFNWEYPSSKHQHKKLVNRDLKTQSGSEMKKFLSTLTIDGVTRSDQGLYTCAASSGLMTKKNSTFVRVHEKVECPPCPAPPVAGPSVFLFPPKPKDQLMISRTPEVTCVVVDVSHEDPEVKFNWYVDGVEVHNAKTKPREEQYNSTYRVVSVLTVLHQDWLNGKEYKCKVSNKGLPSSIEKTISKAKGQPREPQVYTLPPSREEMTKNQVSLTCLVKGFYPSDIAVEWESNGQPENNYKTTPPVLDSDGSFFLYSKLTVDKSRWQQGNVFSCSVMHEGLHNHYTQKSLSLSPGK
- inhibition of IGF-1-induced proliferation of MCF-7, compared to 56662 and chimera B [1]: a smaller EC50 and a higher maximal inhibition
- rescue by HGF, bFGF, or IGF in hep3b cells treated with erlotinib (hep3B cells): decreased the rescue
- inhibition of VEGF-induced proliferation of HUVEC cells (HUVEC cells): potent inhibition
- inhibition of HUVEC proliferation stimulated by IGF-1, bFGF, HGF, VEGF, and combinations (HUVEC cells; FIG. 14): inhibited
- simultaneous binding of IGF and VEGF (IGF-1 and VEGF): could bind simultaneously

B2: Chimera B: IGFBP3 with IGFBP3 linker deletion 1-GS 16 linker-v1v2-Fc, SEQ ID NO: 19 (protein)
chain: MSEVPVARVWLVLLLLTVQVGVTAGGASSAGLGPVVRCEPCDARALAQCAPPPAVCAELVREPGCGCCLTCALSEGQPCGIYTERCGSGLRCQPSPDEARPLQALLDGRGLCVNASAVSKGHAKDSQRYKVDYESQSTDTQNFSSESKRETEYGPCRREMEDTLNHLKFLNVLSPRGVHIPNCDKKGFYKKKQCRPSKGRKRGFCWCVDKYGQPLPGYTTKGKEDVHCYSMQSKGGGGSGGGGSGGGGSGIYIFISDTGRPFVEMYSEIPEIIHMTEGRELVIPCRVTSPNITVTLKKFPLDTLIPDGKRIIWDSRKGFIISNATYKEIGLLTCEATVNGHLYKTNYLTHRQGYRIYDVVLSPSHGIELSVGEKLVLNCTARTELNVGIDFNWEYPSSKHQHKKLVNRDLKTQSGSEMKKFLSTLTIDGVTRSDQGLYTCAASSGLMTKKNSTFVRVHEKVECPPCPAPPVAGPSVFLFPPKPKDQLMISRTPEVTCVVVDVSHEDPEVKFNWYVDGVEVHNAKTKPREEQYNSTYRVVSVLTVLHQDWLNGKEYKCKVSNKGLPSSIEKTISKAKGQPREPQVYTLPPSREEMTKNQVSLTCLVKGFYPSDIAVEWESNGQPENNYKTTPPVLDSDGSFFLYSKLTVDKSRWQQGNVFSCSVMHEGLHNHYTQKSLSLSPGK
- inhibition of VEGF-induced proliferation of HUVEC cells (HUVEC cells): potent inhibition
- VEGF binding remaining over control, mcf7 (VEGF; MCF-7 conditioned medium overnight at 37° C.): 73%
- VEGF binding remaining over control, 37 con (VEGF; PBS overnight at 37° C.): 101%

B3: IGFBP3-erbB4-Fc: ErbB4-GS-IGFBP3-gly 3 linker-Fc, SEQ ID NO: 22 (protein)
chain: MSEVPVARVWLVLLLLTVQVGVTAGVQPSDSQSVCAGTENKLSSLSDLEQQYRALRKYYENCEVVMGNLEITSIEHNRDLSFLRSVREVTGYVLVALNQFRYLPLENLRIIRGTKLYEDRYALAIFLNYRKDGNFGLQELGLKNLTEILNGGVYVDQNKFLCYADTIHWQDIVRNPWPSNLTLVSTNGSSGCGRCHKSCTGRCWGPTENHCQTLTRTVGGGGSGGGGSGGGGSGGGGSGGGGGASSAGLGPVVRCEPCDARALAQCAPPPAVCAELVREPGCGCCLTCALSEGQPCGIYTERCGSGLRCQPSPDEARPLQALLDGRGLCVNASAVSKGHAKDSQRYKVDYESQSTDTQNFSSESKRETEYGPCRREMEDTLNHLKFLNVLSPRGVHIPNCDKKGFYKKKQCRPSKGRKRGFCWCVDKYGQPLPGYTTKGKEDVHCYSMQSKVECPPCPAPPVAGPSVFLFPPKPKDQLMISRTPEVTCVVVDVSHEDPEVKFNWYVDGVEVHNAKTKPREEQYNSTYRVVSVLTVLHQDWLNGKEYKCKVSNKGLPSSIEKTISKAKGQPREPQVYTLPPSREEMTKNQVSLTCLVKGFYPSDIAVEWESNGQPENNYKTTPPVLDSDGSFFLYSKLTVDKSRWQQGNVFSCSVMHEGLHNHYTQKSLSLSPGK
- Kd [2]: 0.004 nM
- Kd [3]: 6 nM
